# Measurements published in article PMC7672466, “Biophysical analysis of Pseudomonas-phage PaP3 small terminase suggests a mechanism for sequence-specific DNA-binding by lateral interdigitation”.
# T1: PaP3 ΔC122-TerS (Pseudomonas phage PaP3, UniProt Q8H9R5 1-121, del122-152)
# T1 sequence: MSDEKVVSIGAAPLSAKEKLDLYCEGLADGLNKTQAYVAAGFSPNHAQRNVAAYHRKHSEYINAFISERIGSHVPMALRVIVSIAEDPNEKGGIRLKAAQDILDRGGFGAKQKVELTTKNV
# B1: Cy3-cos (dsDNA)
# DNA 1: GCCGGCCCCTTTCCGCGTTA
# DNA 2: TAACGCGGAAAGGGGCCGGC
# B2: Cy3-scr (dsDNA)
# DNA 1: GCACTGCAGTAACTTGTCAGTCAT
# DNA 2: ATGACTGACAAGTTACTGCAGTGC
# What was measured:
# [1] = target: T1, PaP3 ΔC122-TerS; experiment: EMSA; 0.15 uM cos DNA on agarose, also 4-16% acrylamide; comparable to WT; EMSA: incubation 37 C 30 min (binding buffer not stated; proteins in GF buffer 20 mM Tris-HCl pH 7.5, 150 mM NaCl, 5 mM bME, 2.5% glycerol); 1% agarose or 4-16% acrylamide gel, 0.5x TBE, 4 C; conditions: protein: recombinant; tags: GST removed by PreScission protease; chain copies: 9; label: 5' Cy3 on both strands; blunt
# [2] = target: T1, PaP3 ΔC122-TerS; experiment: EMSA; 4-16% acrylamide; stronger than WT on scr; EMSA: incubation 37 C 30 min (binding buffer not stated; proteins in GF buffer 20 mM Tris-HCl pH 7.5, 150 mM NaCl, 5 mM bME, 2.5% glycerol); 1% agarose or 4-16% acrylamide gel, 0.5x TBE, 4 C; conditions: protein: recombinant; tags: GST removed by PreScission protease; chain copies: 9; label: 5' Cy3; blunt
Binder,binding result [1],binding result [2]
B1,binds,–
B2,–,binds
